The text below walks through data of publication PMC5923235.

By koff is commonly meant the rate constant with which the complex falls apart. Lower therefore signals slow dissociation. A word on the stoichiometry N: it is a count of units in the complex or per binding partner.

Assay [1] deals with NTS1 A90C^1.58 (TM1) in the Cys-depleted background of rat neurotensin receptor 1 (rat) (UniProt P20789). Briefly: FRET or BRET; ensemble FRET as for the apo samples, with 5 μM agonist neurotensin (+NT); A488- and A555-labelled NTS1 1:1 in brain polar lipid liposomes; room temperature.
Assay [2] shares this target. Description: FRET or BRET; ensemble FRET; A488- and A555-labelled NTS1 reconstituted together 1:1 in brain polar lipid liposomes; apo; ~1 μM receptor; 50 mM Tris-HCl pH 7.4, 50 mM NaCl, 1 mM EDTA, 10% glycerol; room temperature; Ecor corrected for donor-to-acceptor ratio.
Assay [3] addresses NTS1 A261C^5.52 (TM5) in the Cys-depleted background of rat neurotensin receptor 1 (rat) (UniProt P20789). Description: FRET or BRET; ensemble FRET as for the apo samples, with 5 μM agonist neurotensin (+NT); A488- and A555-labelled NTS1 1:1 in brain polar lipid liposomes; room temperature. (In general: Bioluminescence resonance energy transfer reports proximity on the nanometre scale.)

For assay [4] the target is unchanged. Briefly: FRET or BRET; ensemble FRET; A488- and A555-labelled NTS1 reconstituted together 1:1 in brain polar lipid liposomes; apo; ~1 μM receptor; 50 mM Tris-HCl pH 7.4, 50 mM NaCl, 1 mM EDTA, 10% glycerol; room temperature; Ecor corrected for donor-to-acceptor ratio.
The target in assay [5] is NTS1 L371C^7.55 (TM7) in the Cys-depleted background of rat neurotensin receptor 1 (rat) (UniProt P20789). Description: FRET or BRET; ensemble FRET as for the apo samples, with 5 μM agonist neurotensin (+NT); A488- and A555-labelled NTS1 1:1 in brain polar lipid liposomes; room temperature.
The target is the same in assay [6]. Briefly: FRET or BRET; ensemble FRET; A488- and A555-labelled NTS1 reconstituted together 1:1 in brain polar lipid liposomes; apo; ~1 μM receptor; 50 mM Tris-HCl pH 7.4, 50 mM NaCl, 1 mM EDTA, 10% glycerol; room temperature; Ecor corrected for donor-to-acceptor ratio.
The target of assay [7] is NTS1 Q378C^8.52 (H8) in the Cys-depleted background of rat neurotensin receptor 1 (rat) (UniProt P20789). Briefly: FRET or BRET; ensemble FRET as for the apo samples, with 5 μM agonist neurotensin (+NT); A488- and A555-labelled NTS1 1:1 in brain polar lipid liposomes; room temperature.
For assay [8] the target is unchanged. Description: FRET or BRET; ensemble FRET; A488- and A555-labelled NTS1 reconstituted together 1:1 in brain polar lipid liposomes; apo; ~1 μM receptor; 50 mM Tris-HCl pH 7.4, 50 mM NaCl, 1 mM EDTA, 10% glycerol; room temperature; Ecor corrected for donor-to-acceptor ratio.
Assay [9] concerns the target NTS1 S(C)172C^3.55 (TM3, re-introduced native Cys) in the Cys-depleted background of rat neurotensin receptor 1 (rat) (UniProt P20789). Briefly: FRET or BRET; ensemble FRET as for the apo samples, with 5 μM agonist neurotensin (+NT); A488- and A555-labelled NTS1 1:1 in brain polar lipid liposomes; room temperature.
For assay [10] the target is unchanged. Briefly: FRET or BRET; ensemble FRET; A488- and A555-labelled NTS1 reconstituted together 1:1 in brain polar lipid liposomes; apo; ~1 μM receptor; 50 mM Tris-HCl pH 7.4, 50 mM NaCl, 1 mM EDTA, 10% glycerol; room temperature; Ecor corrected for donor-to-acceptor ratio.
Assay [11] addresses NTS1 T186C^4.42 (TM4) in the Cys-depleted background of rat neurotensin receptor 1 (rat) (UniProt P20789). Description: FRET or BRET; ensemble FRET as for the apo samples, with 5 μM agonist neurotensin (+NT); A488- and A555-labelled NTS1 1:1 in brain polar lipid liposomes; room temperature.
The target is the same in assay [12]. Briefly: FRET or BRET; ensemble FRET; A488- and A555-labelled NTS1 reconstituted together 1:1 in brain polar lipid liposomes; apo; ~1 μM receptor; 50 mM Tris-HCl pH 7.4, 50 mM NaCl, 1 mM EDTA, 10% glycerol; room temperature; Ecor corrected for donor-to-acceptor ratio.
Assay [13] shares this target. Briefly: FRET or BRET; single-molecule FRET by TIRF microscopy; Cy3- and Cy5-labelled NTS1 T186C in DPhPC droplet interface bilayers, 100:405:45 Cy3:Cy5:unlabelled, receptor density 0.43 μm^-2; 50 mM NaCl, 1 mM EDTA, 50 mM Tris-HCl pH 7.4; 30 ms frames; constants are of dimer to monomers in two dimensions.
The target in assay [14] is NTS1 V307C^6.34 (TM6) in the Cys-depleted background of rat neurotensin receptor 1 (rat) (UniProt P20789). Description: FRET or BRET; ensemble FRET as for the apo samples, with 5 μM agonist neurotensin (+NT); A488- and A555-labelled NTS1 1:1 in brain polar lipid liposomes; room temperature.
Assay [15] shares this target. Briefly: FRET or BRET; ensemble FRET; A488- and A555-labelled NTS1 reconstituted together 1:1 in brain polar lipid liposomes; apo; ~1 μM receptor; 50 mM Tris-HCl pH 7.4, 50 mM NaCl, 1 mM EDTA, 10% glycerol; room temperature; Ecor corrected for donor-to-acceptor ratio.
In assay [16] the target is NTS1 Y104C^2.41 (TM2) in the Cys-depleted background of rat neurotensin receptor 1 (rat) (UniProt P20789). Briefly: FRET or BRET; ensemble FRET as for the apo samples, with 5 μM agonist neurotensin (+NT); A488- and A555-labelled NTS1 1:1 in brain polar lipid liposomes; room temperature.
Assay [17] shares this target. Briefly: FRET or BRET; ensemble FRET; A488- and A555-labelled NTS1 reconstituted together 1:1 in brain polar lipid liposomes; apo; ~1 μM receptor; 50 mM Tris-HCl pH 7.4, 50 mM NaCl, 1 mM EDTA, 10% glycerol; room temperature; Ecor corrected for donor-to-acceptor ratio.

In turn, “NTS1 A90C^1.58 (TM1) in the Cys-depleted background of rat neurotensin receptor 1 (from UniProt P20789 43-424)” registered an Ecor(+NT) in [1] of 0.77. Besides, in assay [2], the Ecor(apo) came out at 0.73.
Regarding “NTS1 A261C^5.52 (TM5) in the Cys-depleted background of rat neurotensin receptor 1 (from UniProt P20789 43-424)”, in assay [3], the Ecor(+NT) amounted to 1.05. For the same substance, the Ecor(apo) in assay [4] came out at 0.98.
“NTS1 L371C^7.55 (TM7) in the Cys-depleted background of rat neurotensin receptor 1 (from UniProt P20789 43-424)” gave an Ecor(+NT) in [5] of 0.7. For the same substance, the Ecor(apo) in [6] was found to be 0.68.
“NTS1 Q378C^8.52 (H8) in the Cys-depleted background of rat neurotensin receptor 1 (from UniProt P20789 43-424)”: the Ecor(+NT) in [7] amounted to 0.89. In assay [8], the Ecor(apo) came out at 0.89.
For the substance “NTS1 S(C)172C^3.55 (TM3, re-introduced native Cys) in the Cys-depleted background of rat neurotensin receptor 1 (from UniProt P20789 43-424)”, in [9], the Ecor(+NT) worked out at 1.02. In addition, the Ecor(apo) in [10] came to 1.03.
In the case of “NTS1 T186C^4.42 (TM4) in the Cys-depleted background of rat neurotensin receptor 1 (from UniProt P20789 43-424)”, in [11], the Ecor(+NT) worked out at 0.78. Also, the Ecor(apo) in assay [12] came out at 0.77. Further, in [13], the dimer half-life t1/2 was found to be 1.2 s, the koff is 0.58 s⁻¹, the percent of receptors as dimers at 0.43 molecules per μm^2 is 9.8% and the stoichiometry N is 2.
“NTS1 V307C^6.34 (TM6) in the Cys-depleted background of rat neurotensin receptor 1 (from UniProt P20789 43-424)”: the Ecor(+NT) in assay [14] was 0.82. Further, the Ecor(apo) in assay [15] came to 0.99.
Take “NTS1 Y104C^2.41 (TM2) in the Cys-depleted background of rat neurotensin receptor 1 (from UniProt P20789 43-424)”: the Ecor(+NT) in [16] stood at 0.9. For the same substance, the Ecor(apo) in [17] was determined as 0.9.
